The assay deals with Integrin β1 (human (endogenous in MCF-7 and MCF-10A)) (UniProt P05556). The assay is described as follows: co-IP.
UniProt P05556, sequence (P05556 21-798): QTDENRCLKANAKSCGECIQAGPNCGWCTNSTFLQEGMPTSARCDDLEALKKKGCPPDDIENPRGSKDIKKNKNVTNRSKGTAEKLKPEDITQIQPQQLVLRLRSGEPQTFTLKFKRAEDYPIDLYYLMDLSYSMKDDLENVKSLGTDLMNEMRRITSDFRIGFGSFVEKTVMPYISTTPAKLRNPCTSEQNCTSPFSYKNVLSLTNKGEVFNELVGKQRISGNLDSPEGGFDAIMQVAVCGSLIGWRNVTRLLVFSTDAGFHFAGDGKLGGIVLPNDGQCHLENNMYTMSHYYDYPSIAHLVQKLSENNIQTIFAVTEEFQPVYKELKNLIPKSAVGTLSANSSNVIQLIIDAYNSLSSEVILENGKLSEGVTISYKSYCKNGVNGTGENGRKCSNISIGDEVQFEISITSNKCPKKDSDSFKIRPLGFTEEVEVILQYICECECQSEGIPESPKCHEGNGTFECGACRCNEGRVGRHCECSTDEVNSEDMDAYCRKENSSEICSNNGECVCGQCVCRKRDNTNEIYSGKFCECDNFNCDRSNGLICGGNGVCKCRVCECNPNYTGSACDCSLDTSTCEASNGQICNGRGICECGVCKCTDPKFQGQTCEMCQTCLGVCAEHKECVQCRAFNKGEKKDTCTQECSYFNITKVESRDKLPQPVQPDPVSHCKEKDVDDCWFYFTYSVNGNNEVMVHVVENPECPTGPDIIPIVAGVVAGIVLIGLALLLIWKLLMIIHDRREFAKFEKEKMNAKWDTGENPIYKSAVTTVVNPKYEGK

For “Integrin α2 (from UniProt P17301 30-1181) (receptor)”, the percent increase of co-precipitated INTα2 after combined CII/LAM treatment is 53.8%.

In the case of “laminin (from UniProt P02469 22-1786) (complex)”, the percent decrease of co-precipitated LAM in the combined CII/LAM treatment was 27.8%.

Consider “type II collagen (from UniProt P02459 182-1241) (ligand)”, for which the percent decrease of co-precipitated CII in the combined CII/LAM treatment worked out at 27.1%.

Source of the values: paper PMC2681181.
